Reference: patent US20240043489A1, “Cytokine Prodrugs Comprising a Cleavable Linker” (Trutino Biosciences Inc., priority 2020, published 2024)
“And” between values parts separate entries of the source, which are not always exact repeats. Identical values can stand only once. “Also recorded” adds a separate entry of the source.

Columns and labels:
[1] = tested on: EMT06; experiment: In vivo efficacy in EMT06 breast syngeneic model; design: species or system mice; details: EMT06, BALB/c, 20 mpk IV Q3D, D20
Description: (§1) For the efficacy studies, C57BL/6 or BALB/c mice were subcutaneously inoculated with malignant cells and when the average tumor volume reached on average 90 mm^3, animals were randomized into 2 groups based on tumor volumes (n=10 mice per treatment group). Mice were dosed intravenously every 3 days (Q3D) at 20 mg/kg. Tumors, body weights and clinical observations were measured/collected twice a week for the duration of the study. Tumor volume is shown in FIGS. 10A-D, 11A, 12A, and 13B-C. […] Liver and kidney enzyme results corresponding to FIGS. 11A and 12A are shown in FIGS. 11B-D and 12B-D, respectively.

[2] = In vitro serum stability of fusion protein (sandwich ELISA); format: in vitro ADME; details: 37C up to 72 h; serum of naive and MC38 tumor bearing C57BL/6 mice
Description: We developed an ELISA assay to detect and quantify fusion proteins comprising IL-2 and IL-2Rα moieties. Wells of a 96-well plate are coated overnight with 100 uL of a rat anti-mouse IL-2 monoclonal antibody (JES6-1A12; ThermoFisher) at […] in PBS. After washing, wells are blocked with TBS/0.05% Tween 20/1% BSA, then fusion proteins and/or unknown biological samples are added for 1 hr at room temperature. After washing, an anti-mouse IL-2Rα biotin-labelled detection antibody (BAF2438, R&D systems) is added and binding is detected using Ultra Strepavidin HRP (ThermoFisher). The ELISA plate was developed by adding the chromogenic tetramethylbenzidine substrate (Ultra TMB, ThermoFisher). The reaction is stopped by addition of 0.5M H2SO4 and the absorbance is read at 450-650 nm.
Construct B was incubated at 37C for up to 72 h with serum collected from 8 weeks old female C57BL/6 naive and MC38 tumor bearing mice respectively (n=2 per serum type, tumor volume >3000 mm3 at time of collection), in order to examine both non-specific cleavage as well as MMP-specific off-target cleavage. Samples were collected at 0 h, 4 h, 8 h, 24 h, 48 h and 72 h and the intact non-MMP cleaved fusion protein was quantified using an in-house developed sandwich ELISA.

[3] = tested on: CT-26; experiment: In vivo efficacy in CT-26 colorectal syngeneic model; design: species or system mice; details: CT-26, BALB/c, 20 mpk IV Q3D, D13
Description: as §1

[4] = tested on: tumor infiltrating immune cells; experiment: Immune cell populations by immunohistochemistry in MC38 tumor samples; format: in vivo, mice; details: MC38 tumors, 10 mg/kg IV Q3D for 21 days
Description: The objective of this study is to evaluate immune targets in tumor samples by IHC. See below for details: • CD4+Foxp3 double immunofluorescence staining • CD8, CD25, CD3, CD4 and CD335 single IHC staining
7 tumor samples were selected from the systemic in vivo efficacy study and formalin-fixed paraffin embedded (FFPE) blocks were prepared following standard embedding process.
FFPE blocks were sectioned with a manual rotary microtome (4 μm thickness/section) and optimized IHC assay protocols for all the antibodies were used. All stained sections were scanned with NanoZoomer-S60 Image system with 40× magnification. High resolution picture for whole section was generated and further analyzed.
Scoring Method: All the images were analyzed with HALO™ Image Analysis platform. The whole slide image was analyzed and necrosis area was excluded. The total cells and IHC positive cells were counted. IHC score is presented as the ratio of the positive cell counts against the total cell numbers within whole section and shown in FIG. 8.

[5] = tested on: RM-1; experiment: In vivo efficacy in RM-1 prostate cancer model
Description: as §1

[6] = molecular target: fibronectin (Homo sapiens, UniProt P02751); experiment: IL-2 fusion protein plate binding assay to fibronectin
fibronectin, sequence (P02751 32-2477, species assumed): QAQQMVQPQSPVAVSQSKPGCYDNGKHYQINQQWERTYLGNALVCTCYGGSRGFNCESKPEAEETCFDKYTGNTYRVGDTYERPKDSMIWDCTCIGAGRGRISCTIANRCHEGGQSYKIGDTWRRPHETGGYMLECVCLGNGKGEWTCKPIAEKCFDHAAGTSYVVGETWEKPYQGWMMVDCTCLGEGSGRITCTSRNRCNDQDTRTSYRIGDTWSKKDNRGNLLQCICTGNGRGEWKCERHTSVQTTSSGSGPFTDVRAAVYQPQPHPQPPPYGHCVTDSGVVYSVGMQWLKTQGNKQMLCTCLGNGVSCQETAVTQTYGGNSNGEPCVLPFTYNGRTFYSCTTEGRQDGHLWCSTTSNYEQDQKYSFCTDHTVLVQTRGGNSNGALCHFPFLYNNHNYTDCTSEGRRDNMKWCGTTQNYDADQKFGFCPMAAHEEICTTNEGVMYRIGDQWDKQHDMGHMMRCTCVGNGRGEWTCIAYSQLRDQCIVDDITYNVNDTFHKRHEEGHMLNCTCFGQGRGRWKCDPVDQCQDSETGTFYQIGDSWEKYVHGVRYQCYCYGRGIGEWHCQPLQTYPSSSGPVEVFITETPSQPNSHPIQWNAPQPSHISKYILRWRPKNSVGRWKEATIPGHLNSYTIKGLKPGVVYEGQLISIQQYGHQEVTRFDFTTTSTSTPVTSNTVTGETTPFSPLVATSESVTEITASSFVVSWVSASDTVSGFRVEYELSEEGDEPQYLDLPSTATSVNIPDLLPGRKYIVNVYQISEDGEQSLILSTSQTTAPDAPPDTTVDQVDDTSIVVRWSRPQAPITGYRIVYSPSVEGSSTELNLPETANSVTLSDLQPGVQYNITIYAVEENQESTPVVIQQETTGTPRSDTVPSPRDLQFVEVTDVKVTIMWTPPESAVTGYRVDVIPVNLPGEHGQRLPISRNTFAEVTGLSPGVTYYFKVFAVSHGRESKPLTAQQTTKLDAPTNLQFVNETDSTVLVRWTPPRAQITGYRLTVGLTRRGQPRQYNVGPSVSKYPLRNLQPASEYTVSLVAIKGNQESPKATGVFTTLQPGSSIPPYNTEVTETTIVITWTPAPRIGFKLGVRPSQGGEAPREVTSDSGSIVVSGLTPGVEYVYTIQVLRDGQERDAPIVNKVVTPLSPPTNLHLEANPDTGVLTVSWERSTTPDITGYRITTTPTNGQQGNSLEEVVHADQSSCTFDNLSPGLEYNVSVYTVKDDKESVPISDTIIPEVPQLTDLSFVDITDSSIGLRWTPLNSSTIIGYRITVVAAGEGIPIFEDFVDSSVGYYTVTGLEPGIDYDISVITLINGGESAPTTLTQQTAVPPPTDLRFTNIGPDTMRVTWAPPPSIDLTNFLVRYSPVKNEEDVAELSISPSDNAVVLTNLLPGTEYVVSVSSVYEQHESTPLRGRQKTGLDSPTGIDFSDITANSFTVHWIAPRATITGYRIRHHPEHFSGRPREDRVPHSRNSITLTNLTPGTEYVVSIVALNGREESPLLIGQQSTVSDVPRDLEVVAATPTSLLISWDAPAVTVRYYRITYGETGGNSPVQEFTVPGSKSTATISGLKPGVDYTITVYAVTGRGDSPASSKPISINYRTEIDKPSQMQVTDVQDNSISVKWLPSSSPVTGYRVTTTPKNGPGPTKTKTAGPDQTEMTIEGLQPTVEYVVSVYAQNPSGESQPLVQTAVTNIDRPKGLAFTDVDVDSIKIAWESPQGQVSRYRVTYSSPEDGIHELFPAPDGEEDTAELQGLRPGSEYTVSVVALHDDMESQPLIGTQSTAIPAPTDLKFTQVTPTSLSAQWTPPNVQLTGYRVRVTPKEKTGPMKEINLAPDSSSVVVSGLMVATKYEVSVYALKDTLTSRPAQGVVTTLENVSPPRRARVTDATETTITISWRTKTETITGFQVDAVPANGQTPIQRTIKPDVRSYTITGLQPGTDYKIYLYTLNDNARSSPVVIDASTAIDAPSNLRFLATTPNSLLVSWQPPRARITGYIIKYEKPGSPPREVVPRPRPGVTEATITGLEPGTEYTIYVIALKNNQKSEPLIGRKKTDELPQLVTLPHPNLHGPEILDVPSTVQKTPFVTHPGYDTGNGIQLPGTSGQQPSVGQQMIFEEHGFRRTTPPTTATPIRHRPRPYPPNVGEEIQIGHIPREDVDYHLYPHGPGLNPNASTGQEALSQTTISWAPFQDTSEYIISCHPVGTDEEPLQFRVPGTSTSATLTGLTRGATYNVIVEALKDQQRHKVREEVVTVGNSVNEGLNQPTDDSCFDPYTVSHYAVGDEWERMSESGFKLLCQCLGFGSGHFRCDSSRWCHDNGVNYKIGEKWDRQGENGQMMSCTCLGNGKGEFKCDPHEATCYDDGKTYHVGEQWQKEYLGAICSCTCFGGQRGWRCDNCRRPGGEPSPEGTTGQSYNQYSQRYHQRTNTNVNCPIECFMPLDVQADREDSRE
Description: A similar plate-based assay was developed to interrogate binding of IL-2 fusion variants to fibronectin. 96-well plates were coated with 4 ug/mL of fibronectin (Sigma) or control BSA for 18-22 h at room temperature on shaker (350 rpm). After washing, wells are blocked with protein-free blocking buffer (Pierce) for 90 min, then fusion proteins are titrated in blocking buffer-0.1% Tween 20 pH 7.5 and/or pH 6 and added for 1 hr at room temperature with shaking. After washing, an anti-mouse IL-2 biotin-labelled detection antibody (JES6-5H4, ThermoFisher) is added and binding is detected using Ultra Streptavidin HRP (ThermoFisher). The plate was developed by adding the chromogenic tetramethylbenzidine substrate (Ultra TMB, ThermoFisher). The reaction is stopped by addition of 0.5M H2SO4 and the absorbance is read at 450-650 nm.

[7] = tested on: B16F10 melanoma; experiment: In vivo efficacy of retention linker IL-2 drugs in B16F10 syngeneic model (Example 17); design: species or system mice
Description: (§2) In a first efficacy study, C57BL/6 mice were subcutaneously inoculated with B16F10 melanoma cells and when the average tumor volume reached on average 70-90 mm^3, animals were randomized into 5 groups based on tumor volumes (n=6 mice per treatment group). Mice were dosed intravenously every 3 days (Q3D) for a total of 5 doses according to following design:
as §2, with “second” for “first”, “study in the same model,” for “study,”
On Day 20, mice received an additional dose of drug, animals were sacrificed 24 hrs later and tissues and blood (processed to serum) were collected and stored at −80C for further testing. […] This is most likely due to the higher levels of both circulating drugs in serum and resident drug in TME, which can exert prolonged anti-tumor activity even after an extended dosing holiday.

B1: Construct B: SEQ ID NO 101: m IL2-2x(SG4)-MMPcs1-2x(G4S)-IL2Ralpha-mIgG1 Fc (protein)
chain: APTSSSTSSSTAEAQQQQQQQQQQQQHLEQLLMDLQELLSRMENYRNLKLPRMLTFKFYLPKQATELKDLQCLEDELGPLRHVLDLTQSKSFQLEDAENFISNIRVTVVKLKGSDNTFECQFDDESATVVDFLRRWIAFCQSIISTSPQSGGGGSGGGGGPLGVRGGGGGSGGGGSELCLYDPPEVPNATFKALSYKNGTILNCECKRGFRRLKELVYMRCLGNSWSSNCQCTSNSHDKSRKQVTAQLEHQKEQQTTTDMQKPTQSMHQENLTGHCREPPPWKHEDSKRIYHFVEGQSVHYECIPGYKALQRGPAISICKMKCGKTGWTQPQLTCVDEREHHRFLASEESQGSRNSSPESETSCPITTTDFPQPTETTAMTETFVLTMEYKGCKPCICTVPEVSSVFIFPPKPKDVLTITLTPKVTCVVVDISKDDPEVQFSWFVDDVEVHTAQTQPREEQFNSTFRSVSELPIMHQDWLNGKEFKCRVNSAAFPAPIEKTISKTKGRPKAPQVYTIPPPKEQMAKDKVSLTCMITDFFPEDITVEWQWNGQPAENYKNTQPIMDTDGSYFVYSKLNVQKSNWEAGNTFTCSVLHEGLHNHHTEKSLSHSPGK
Max TGI % [1]: 43% | stability of intact fusion protein in serum [2]: stable | Max TGI % [3]: 46% | tumor infiltrating immune cells (IHC score) vs vehicle [4]: Significantly more immune cells of all tested types; also recorded: significant increase in tumor infiltrating immune cells | signs of toxicity (body weight loss, liver and/or kidney enzymes, clinical observations) ([5]; RM-1 model, 20 mg/kg IV Q3D): no signs of toxicity | Max TGI % ([5]; RM_1, C57BL/6, 20 mpk IV Q3D, D10): 58% | fibronectin binding at acidic pH ([6]; pH 6): No significant binding | fibronectin binding at pH 7.5 ([6]; pH 7.5 (neutral)): No significant binding | TGI (%) D 15 ([7]; 10 mg/kg IV Q3D, 5 doses): 27% and 27.43% | efficacy after a dosing holiday of 7 days ([7]; 10 mg/kg, Day 20): diminished efficacy | TGI (%) D 20 ([7]; 10 mg/kg, 7 days following the fifth dose): 14.02% | TGI (%) D 13 ([7]; 20 mg/kg IV Q3D, 5 doses): 61% and 61.43% | TGI (%) D 13 ([7]; 40 mg/kg IV Q3D, 5 doses): 58.44% | TGI ([7]; Construct B treated groups regardless of dose (20 and 40 mg/kg)): ~60%
